Data from patent publication US20030152576A1 (published 2003).

B1: biotinylated recombinant HBsAg particles, which only contain S protein (b-rHBsAg) (other)
chain: MENITSGFLGPLLVLQAGFFLLTRILTIPQSLDSWWTSLNFLGGSPVCLGQNSQSPTSNHSPTSCPPICPGYRWMCLRRFIIFLFILLLCLIFLLVLLDYQGMLPVCPLIPGSTTTSTGPCKTCTTPAQGNSMFPSCCCTKPTDGNCTCIPIPSSWAFAKYLWEWASVRFSWLSLLVPFVQWFVGLSPTVWLSAIWMMWYWGPSLYSIVSPFIPLLPIFFCLWVYI
modifications: biotinylated on lysine residues (the three lysine residues which can become biotinylated all lie in the major antigenic region of the S protein; positions 122 and 141 are named)
notes: domain: S protein; Multimeric virus-like particle with lipid; also called biotinylated rHBsAg
B2: recombinant soluble CD14 (receptor)
chain: TTPEPCELDDEDFRCVCNFSEPQPDWSEAFQCVSAVEVEIHAGGLNLEPFLKRVDADADPRQYADTVKALRVRRLTVGAAQVPAQLLVGALRVLAYSRLKELTLEDLKITGTMPPLPLEATGLALSSLRLRNVSWATGRSWLAELQQWLKPGLKVLSIAQAHSPAFSCEQVRAFPALTSLDLSDNPGLGERGLMAALCPHKFPAIQNLALRNTGMETPTGVCAALAAAGVQPHSLDLSHNSLRATVNPSAPRCMWSSALNSLNLSFAGLEQVPKGLPAKLRVLDLSCNRLNRAPQPDELPEVDNLTLDGNPFLVPGTALPHEGSMNSGVVPACARSTLSVGVSGTLVL
notes: also called sCD14; recombinant sCD14

Key:
mouse CD14 (mouse) = mouse CD14 (mouse) (UniProt P10810); assay: flow cytometry, mCD14-CHO cells, FITC-labelled mAb
human CD14 (human) = human CD14 (human) (UniProt P08571); assay: flow cytometry, hCD14-CHO cells, FITC-labelled mAb
[1] = molecular target: T1, human CD14 with amino acids 39, 40, 41, 43 and 44 substituted with alanine (mut6) (human, UniProt P08571 20-345); assay: flow cytometry on CHO cells transfected with mut6, 2% HS-HBSS, Strep-PE
T1 construct: whole, on cells; The positions count on the mature protein (add 19 for the precursor entry); also called CD14mut6; CHO-Mut6
T1 sequence (looked up): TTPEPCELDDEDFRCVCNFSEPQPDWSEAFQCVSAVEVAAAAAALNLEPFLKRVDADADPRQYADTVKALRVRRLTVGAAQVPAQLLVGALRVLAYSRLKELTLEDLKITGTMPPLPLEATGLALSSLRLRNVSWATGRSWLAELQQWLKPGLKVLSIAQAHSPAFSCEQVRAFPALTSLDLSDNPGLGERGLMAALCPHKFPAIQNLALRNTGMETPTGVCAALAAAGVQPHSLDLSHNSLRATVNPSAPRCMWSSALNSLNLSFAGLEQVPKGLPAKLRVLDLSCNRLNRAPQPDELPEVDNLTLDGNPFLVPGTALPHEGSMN

[2] = molecular target: B1; assay: flow cytometry competition; b-rHBsAg pre-incubated with recombinant sCD14 in 2% HS-HBSS, then binding to monocytes of PBMC

Chain of mouse CD14 (mouse) (P10810 16-336): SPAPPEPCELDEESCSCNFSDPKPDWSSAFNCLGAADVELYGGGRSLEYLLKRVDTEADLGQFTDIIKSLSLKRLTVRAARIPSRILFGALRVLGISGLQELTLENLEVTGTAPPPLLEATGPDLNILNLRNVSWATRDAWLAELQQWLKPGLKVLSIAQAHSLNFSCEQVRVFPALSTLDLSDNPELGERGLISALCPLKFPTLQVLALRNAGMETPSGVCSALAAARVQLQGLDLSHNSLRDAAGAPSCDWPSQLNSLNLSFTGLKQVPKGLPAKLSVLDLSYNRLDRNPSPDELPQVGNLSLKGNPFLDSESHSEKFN

| Molecule | Median Fluorescence (mouse CD14 (mouse)) | Median Fluorescence (human CD14 (human)) | binding result [1] | IC50 [2] |
| --- | --- | --- | --- | --- |
| Mouse anti-human CD14 (clone M(P9)) (antibody) | 0 | 502 | – | – |
| Mouse anti-human CD14 (clone My4) (antibody) | 0.12 | 291 | – | – |
| Rat anti-mouse CD14-FITC (clone rmC5-3, IgG1) (antibody) | 24 | 0 | – | – |
| B1 | – | – | no binding | – |
| B2 | – | – | – | > 2.5 µg/mL |
